In patent US20050069530A1:

T1: human recombinant cytosolic PLA2 (cPLA2) (human), P47712
T1 chain: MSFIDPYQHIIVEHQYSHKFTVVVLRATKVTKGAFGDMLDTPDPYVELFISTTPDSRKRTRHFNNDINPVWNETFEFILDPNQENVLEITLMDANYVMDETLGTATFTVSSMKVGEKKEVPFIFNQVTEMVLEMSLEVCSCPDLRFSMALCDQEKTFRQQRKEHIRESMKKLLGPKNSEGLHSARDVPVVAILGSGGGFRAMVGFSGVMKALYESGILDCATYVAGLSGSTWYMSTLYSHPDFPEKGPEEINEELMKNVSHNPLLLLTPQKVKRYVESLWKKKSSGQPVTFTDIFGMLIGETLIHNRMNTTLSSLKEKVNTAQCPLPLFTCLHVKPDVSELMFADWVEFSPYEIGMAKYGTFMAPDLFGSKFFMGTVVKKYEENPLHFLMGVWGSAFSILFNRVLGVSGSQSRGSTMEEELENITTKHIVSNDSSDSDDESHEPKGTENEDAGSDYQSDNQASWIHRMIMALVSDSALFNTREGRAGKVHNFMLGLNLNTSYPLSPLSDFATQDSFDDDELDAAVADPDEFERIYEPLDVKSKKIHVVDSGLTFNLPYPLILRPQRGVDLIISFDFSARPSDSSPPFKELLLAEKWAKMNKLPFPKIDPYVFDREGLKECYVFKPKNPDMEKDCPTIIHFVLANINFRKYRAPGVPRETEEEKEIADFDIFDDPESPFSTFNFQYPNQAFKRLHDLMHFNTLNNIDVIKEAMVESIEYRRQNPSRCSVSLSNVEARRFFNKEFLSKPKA

T2: human type IIA sPLA2 (human), P14555
T2 chain: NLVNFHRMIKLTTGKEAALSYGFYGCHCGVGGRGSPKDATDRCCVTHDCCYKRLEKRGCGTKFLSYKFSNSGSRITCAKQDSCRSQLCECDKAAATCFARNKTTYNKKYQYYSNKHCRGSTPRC


Columns and labels:
Assay in all cases: cell-based or functional assay
crotoxin B, P62022 = molecular target: crotoxin B, P62022
[1] = molecular target: T1, human recombinant cytosolic PLA2 …
[2] = molecular target: T2, human type IIA sPLA2 (human), P14555

Binder	IC50 of PLA2 enzyme inhibition (labeled E. coli membrane assay) (crotoxin B, P62022)	selectivity of enzyme inhibition, sPLA2 over cPLA2 [1]	IC50 of sPLA2 enzyme inhibition (3H-labelled E. coli membranes as substrate) [2]
YRRVDIGLRVWHDLGVG (modifications not checked) [Scrambled P-NT.II]	> 250 µM	–	–
LGRVDIHVWDGVYIRGR (modifications not checked) [P-NT.II]	4.9 µM	5 fold	5.3 µM
